Measurements reported in PMC4447949, “Structures of the Ets Protein DNA-binding Domains of Transcription Factors Etv1, Etv4, Etv5, and Fev” (The Journal of Biological Chemistry, 2015).
Where a chain is given by its changes, count along the chain named. Numbers in names are those of the source.

Key:
[1] = target: the molecule itself; experiment: crystal structure; DNA-free crystals; dimer seen between adjacent molecules in the crystal, with an intermolecular disulfide bond; protein purified with TCEP
[2] = target: the molecule itself; experiment: SEC; protein expressed in Rosetta-gami 2 E. coli and purified under nonreducing conditions (no TCEP); Superdex S75 or 200, 20 mM HEPES pH 7.5, 500 mM NaCl, 5% glycerol; dimer checked by SDS-PAGE with or without DTT and by mass spectrometry
Etv1 Y329S-P427S = Etv1 Y329S-P427S (human, UniProt P50549 326-429, Y329S;P427S); experiment: X-ray crystallography; 2.9 A; EMSA: 50 mM Tris-HCl pH 7.5, 50 mM NaCl, 2 mM MgCl2, 0.01% Tween 20, 5% glycerol, 1 h at room temperature; proteins reduced with 10 mM TCEP unless stated; 10% native PAGE; conditions: protein: recombinant; tags: N-terminal His6 removed by TEV (leaves SM); blunt
Fev Ets domain = target: T1, Fev Ets domain (human, UniProt Q99581 42-141); experiment: X-ray crystallography; text cites 2YPR for the complex, but Fig. 1 uses 2YPR as Fev and Fig. 7 gives 3ZP5 as Fev-dsDNA; EMSA: 50 mM Tris-HCl pH 7.5, 50 mM NaCl, 2 mM MgCl2, 0.01% Tween 20, 5% glycerol, 1 h at room temperature; proteins reduced with 10 mM TCEP unless stated; 10% native PAGE; conditions: protein: recombinant; tags: N-terminal His6 removed by TEV (leaves SM); chain copies: 2; blunt
T1 sequence: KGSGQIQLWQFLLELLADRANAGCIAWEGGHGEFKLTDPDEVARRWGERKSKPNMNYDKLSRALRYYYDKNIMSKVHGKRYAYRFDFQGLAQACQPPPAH

Etv5 Ets domain = Etv5 Ets domain (human, UniProt P41161 365-462); experiment: X-ray crystallography; 1.95 A; Ca2+ bound near alpha4; EMSA: 50 mM Tris-HCl pH 7.5, 50 mM NaCl, 2 mM MgCl2, 0.01% Tween 20, 5% glycerol, 1 h at room temperature; proteins reduced with 10 mM TCEP unless stated; 10% native PAGE; conditions: protein: recombinant; tags: N-terminal His6 removed by TEV (leaves SM); 3' overhang 1 nt on each strand
Etv4 Ets domain = Etv4 Ets domain (human, UniProt P43268 338-470); experiment: X-ray crystallography; 2.8 A; 8 complexes per asymmetric unit; EMSA: 50 mM Tris-HCl pH 7.5, 50 mM NaCl, 2 mM MgCl2, 0.01% Tween 20, 5% glycerol, 1 h at room temperature; proteins reduced with 10 mM TCEP unless stated; 10% native PAGE; conditions: protein: recombinant; tags: N-terminal His6 removed by TEV (leaves SM); 3' overhang 1 nt on each strand

B1: Etv1^Y329S-P427S Ets domain (amino acids 326-429) (domain or fragment, human, UniProt P50549 326-429, looked up)
chain: GPTSQRRGSLQLWQFLVALLDDPSNSHFIAWTGRGMEFKLIEPEEVARRWGIQKNRPAMNYDKLSRSLRYYYEKGIMQKVAGERYVYKFVCDPEALFSMAFSDN
notes: Etv1 (Ets translocation variant 1, ER81), Ets domain construct, amino acids 326-429, with two primer-incorporated mutations; A selenomethionine form was used for phasing of the DNA complex; also called PCR mutant Ets domain; ER81; source: E. coli BL21 (DE3) Rosetta-R3, purified (Ni-IDA, TEV cleavage, SEC); not shown: His6, N-terminal, cleaved
binding result [1]: binds

B2: Etv1 wild-type Ets domain (amino acids 326-429) (domain or fragment, human, UniProt P50549 326-429, looked up)
chain: B1 chain with S4Y, S102P
notes: Same limits as the crystallised Y329S-P427S construct (PDB 4AVP, 4BNC); TEV cleavage leaves SM before the insert; From Rosetta-gami 2 under nonreducing conditions it is a disulfide-linked dimer; also called WT; WT dimer; source: E. coli BL21 (DE3) Rosetta-R3, purified with TCEP (Ni-IDA, TEV cleavage, SEC); E. coli Rosetta-gami 2, purified without TCEP; not shown: His6, N-terminal, cleaved
stoichiometry N [2]: 2

B3: Etv5 Ets domain (amino acids 365-462) (domain or fragment, human, UniProt P41161 365-462, looked up)
chain: RGSLQLWQFLVTLLDDPANAHFIAWTGRGMEFKLIEPEEVARRWGIQKNRPAMNYDKLSRSLRYYYEKGIMQKVAGERYVYKFVCDPDALFSMAFPDN
notes: Etv5 (ERM), Ets domain construct, amino acids 365-462; TEV cleavage leaves SM before the insert; The limits are those told for the crystallisation construct; also called ERM; Etv5 WT; source: E. coli BL21 (DE3) Rosetta-R3, purified with TCEP (Ni-IDA, TEV cleavage, SEC); E. coli Rosetta-gami 2, purified without TCEP; not shown: His6, N-terminal, cleaved
stoichiometry N [2]: 2

B4: Fev Ets domain (amino acids 42-141) (domain or fragment, human, UniProt Q99581 42-141, looked up)
chain: T1 sequence
notes: Fev (Fifth Ewing Variant, PET-1), Ets domain construct, amino acids 42-141; TEV cleavage leaves SM before the insert; also called Fifth Ewing Variant; PET-1; source: E. coli BL21 (DE3) Rosetta-R3, purified (Ni-IDA, TEV cleavage, SEC); not shown: His6, N-terminal, cleaved
binding result [1]: binds

B5: Etv4 Ets domain (amino acids 338-470) (domain or fragment, human, UniProt P43268 338-470, looked up)
chain: RGALQLWQFLVALLDDPTNAHFIAWTGRGMEFKLIEPEEVARLWGIQKNRPAMNYDKLSRSLRYYYEKGIMQKVAGERYVYKFVCEPEALFSLAFPDNQRPALKAEFDRPVSEEDTVPLSHLDESPAYLPELA
notes: Etv4 (PEA3), Ets domain construct, amino acids 338-470; TEV cleavage leaves SM before the insert; The limits are those told for the crystallised construct; also called PEA3; Etv4 WT; source: E. coli BL21 (DE3) Rosetta-R3, purified with TCEP (Ni-IDA, TEV cleavage, SEC); E. coli Rosetta-gami 2, purified without TCEP; not shown: His6, N-terminal, cleaved
stoichiometry N [2]: 2

B6: 10-bp crystallization duplex (dsDNA)
DNA 1: ACCGGAAGTG
DNA 2: CACTTCCGGT
binding result (Etv1 Y329S-P427S): binds
binding result (Fev Ets domain): binds

B7: 9-bp crystallization duplex with overhangs (dsDNA)
DNA 1: ACCGGAAGTG
DNA 2: ACTTCCGGTC
binding result (Etv5 Ets domain): binds
binding result (Etv4 Ets domain): binds
